# Changes are numbered by the printed parent chain.
# B1: CE115HA000 N53I (antibody, human IgG1, kappa, L234A L235A, N297A, name in Kabat numbering)
# heavy: QVQLVESGGGVVQPGRSLRLSCAASGFTFSNAWMHWVRQAPGKGLEWVAQIKAKSINYATYYAESVKGRFTISRDDSKNSLYLQMNSLKTEDTAVYYCRYVHYGAYYGVDAWGQGTTVTVSSASTKGPSVFPLAPSSKSTSGGTAALGCLVKDYFPEPVTVSWNSGALTSGVHTFPAVLQSSGLYSLSSVVTVPSSSLGTQTYICNVNHKPSNTKVDKKVEPKSCDKTHTCPPCPAPEAAGGPSVFLFPPKPKDTLMISRTPEVTCVVVDVSHEDPEVKFNWYVDGVEVHNAKTKPREEQYASTYRVVSVLTVLHQDWLNGKEYKCKVSNKALPAPIEKTISKAKGQPREPQVYTLPPSRCELTKNQVSLSCAVKGFYPSDIAVEWESNGQPENNYKTTPPVLDSDGSFFLVSKLTVDKSRWQQGNVFSCSVMHEALHNHYTQKSLSLSPDYKDDDDK
# chain: EPKSSDKTHTCPPCPAPELLGGPSVFLFPPKPKDTLMISRTPEVTCVVVDVSHEDPEVKFNWYVDGVEVHNAKTKPREEQYNSTYRVVSVLTVLHQDWLNGKEYKCKVSNKALPAPIEKTISKAKGQPREPQVCTLPPSRDELTKNQVSLWCLVKGFYPSDIAVEWESNGQPENNYKTTPPVLDSDGSFFLYSKLTVDKSRWQQGNVFSCSVMHEALHNRYTQKSLSLSP
# light: DIVMTQSPLSLPVTPGEPASISCRSSQSLVHSNRNTYLHWYQQKPGQAPRLLIYKVSNRFSGVPDRFSGSGSGTDFTLKISRVEAEDVGVYYCGQGTQVPYTFGQGTKLEIKRTVAAPSVFIFPPSDEQLKSGTASVVCLLNNFYPREAKVQWKVDNALQSGNSQESVTEQDSKDSTYSLSSTLTLSKADYEKHKVYACEVTHQGLSSPVTKSFNRGEC
# notes: one-arm antibody
# B2: CE115HA000 N53K (antibody, human IgG1, kappa, L234A L235A, N297A, name in Kabat numbering)
# heavy: B1 heavy with I56K
# chain: B1 chain
# light: B1 light
# notes: one-arm antibody
# B3: CE115HA000 N53Q (antibody, human IgG1, kappa, L234A L235A, N297A, name in Kabat numbering)
# heavy: B1 heavy with I56Q
# chain: B1 chain
# light: B1 light
# notes: one-arm antibody
# B4: CE115HA000 N53S (antibody, human IgG1, kappa, L234A L235A, N297A, name in Kabat numbering)
# heavy: B1 heavy with I56S
# chain: B1 chain
# light: B1 light
# notes: one-arm antibody
# B5: CE115HA000 N53W (antibody, human IgG1, kappa, L234A L235A, N297A, name in Kabat numbering)
# heavy: B1 heavy with I56W
# chain: B1 chain
# light: B1 light
# notes: one-arm antibody
# B6: CE115HA000 N53Y (antibody, human IgG1, kappa, L234A L235A, N297A, name in Kabat numbering)
# heavy: B1 heavy with I56Y
# chain: B1 chain
# light: B1 light
# notes: one-arm antibody
# B7: CE115HA000 N54A (antibody, human IgG1, kappa, L234A L235A, N297A, name in Kabat numbering)
# heavy: B1 heavy with I56N, N57A
# chain: B1 chain
# light: B1 light
# notes: one-arm antibody
# B8: CE115HA000 N54D (antibody, human IgG1, kappa, L234A L235A, N297A, name in Kabat numbering)
# heavy: B1 heavy with I56N, N57D
# chain: B1 chain
# light: B1 light
# notes: one-arm antibody
# B9: CE115HA000 N54F (antibody, human IgG1, kappa, L234A L235A, N297A, name in Kabat numbering)
# heavy: B1 heavy with I56N, N57F
# chain: B1 chain
# light: B1 light
# notes: one-arm antibody
# B10: CE115HA000 N54G (antibody, human IgG1, kappa, L234A L235A, N297A, name in Kabat numbering)
# heavy: B1 heavy with I56N, N57G
# chain: B1 chain
# light: B1 light
# notes: one-arm antibody
# B11: CE115HA000 N54K (antibody, human IgG1, kappa, L234A L235A, N297A, name in Kabat numbering)
# heavy: B1 heavy with I56N, N57K
# chain: B1 chain
# light: B1 light
# notes: one-arm antibody
# B12: CE115HA000 N54L (antibody, human IgG1, kappa, L234A L235A, N297A, name in Kabat numbering)
# heavy: B1 heavy with I56N, N57L
# chain: B1 chain
# light: B1 light
# notes: one-arm antibody
# B13: CE115HA000 N54Q (antibody, human IgG1, kappa, L234A L235A, N297A, name in Kabat numbering)
# heavy: B1 heavy with I56N, N57Q
# chain: B1 chain
# light: B1 light
# notes: one-arm antibody
# B14: CE115HA000 N54S (antibody, human IgG1, kappa, L234A L235A, N297A, name in Kabat numbering)
# heavy: B1 heavy with I56N, N57S
# chain: B1 chain
# light: B1 light
# notes: one-arm antibody
# B15: CE115HA000 N54Y (antibody, human IgG1, kappa, L234A L235A, N297A, name in Kabat numbering)
# heavy: B1 heavy with I56N, N57Y
# chain: B1 chain
# light: B1 light
# notes: one-arm antibody
# B16: CE115HA000 N76S (antibody, human IgG1, kappa, L234A L235A, N297A, name in Kabat numbering)
# heavy: B1 heavy with I56N, N79S
# chain: B1 chain
# light: B1 light
# notes: one-arm antibody
# B17: CE115HA000 N82aD (antibody, human IgG1, kappa, L234A L235A, N297A, name in Kabat numbering)
# heavy: B1 heavy with I56N, N86D
# chain: B1 chain
# light: B1 light
# notes: one-arm antibody
# B18: CE115HA000 Q50A (antibody, human IgG1, kappa, L234A L235A, N297A, name in Kabat numbering)
# heavy: B1 heavy with Q50A, I56N
# chain: B1 chain
# light: B1 light
# notes: one-arm antibody
# B19: CE115HA000 Q50D (antibody, human IgG1, kappa, L234A L235A, N297A, name in Kabat numbering)
# heavy: B1 heavy with Q50D, I56N
# chain: B1 chain
# light: B1 light
# notes: one-arm antibody
# B20: CE115HA000 Q50E (antibody, human IgG1, kappa, L234A L235A, N297A, name in Kabat numbering)
# heavy: B1 heavy with Q50E, I56N
# chain: B1 chain
# light: B1 light
# notes: one-arm antibody
# B21: CE115HA000 Q50I (antibody, human IgG1, kappa, L234A L235A, N297A, name in Kabat numbering)
# heavy: B1 heavy with Q50I, I56N
# chain: B1 chain
# light: B1 light
# notes: one-arm antibody
# B22: CE115HA000 Q50K (antibody, human IgG1, kappa, L234A L235A, N297A, name in Kabat numbering)
# heavy: B1 heavy with Q50K, I56N
# chain: B1 chain
# light: B1 light
# notes: one-arm antibody
# B23: CE115HA000 Q50L (antibody, human IgG1, kappa, L234A L235A, N297A, name in Kabat numbering)
# heavy: B1 heavy with Q50L, I56N
# chain: B1 chain
# light: B1 light
# notes: one-arm antibody
# B24: CE115HA000 Q50S (antibody, human IgG1, kappa, L234A L235A, N297A, name in Kabat numbering)
# heavy: B1 heavy with Q50S, I56N
# chain: B1 chain
# light: B1 light
# notes: one-arm antibody
# B25: CE115HA000 Q50Y (antibody, human IgG1, kappa, L234A L235A, N297A, name in Kabat numbering)
# heavy: B1 heavy with Q50Y, I56N
# chain: B1 chain
# light: B1 light
# notes: one-arm antibody
# B26: CE115HA000 Q105E (antibody, human IgG1, kappa, L234A L235A, N297A, name in Kabat numbering)
# heavy: B1 heavy with I56N, Q114E
# chain: B1 chain
# light: B1 light
# notes: one-arm antibody
# B27: CE115HA000 R16E (antibody, human IgG1, kappa, L234A L235A, N297A, name in Kabat numbering)
# heavy: B1 heavy with R16E, I56N
# chain: B1 chain
# light: B1 light
# notes: one-arm antibody
# B28: CE115HA000 R16Q (antibody, human IgG1, kappa, L234A L235A, N297A, name in Kabat numbering)
# heavy: B1 heavy with R16Q, I56N
# chain: B1 chain
# light: B1 light
# notes: one-arm antibody
# B29: CE115HA000 R19T (antibody, human IgG1, kappa, L234A L235A, N297A, name in Kabat numbering)
# heavy: B1 heavy with R19T, I56N
# chain: B1 chain
# light: B1 light
# notes: one-arm antibody
# B30: CE115HA000 S30D (antibody, human IgG1, kappa, L234A L235A, N297A, name in Kabat numbering)
# heavy: B1 heavy with S30D, I56N
# chain: B1 chain
# light: B1 light
# notes: one-arm antibody
# B31: CE115HA000 S30G (antibody, human IgG1, kappa, L234A L235A, N297A, name in Kabat numbering)
# heavy: B1 heavy with S30G, I56N
# chain: B1 chain
# light: B1 light
# notes: one-arm antibody
# B32: CE115HA000 S52cA (antibody, human IgG1, kappa, L234A L235A, N297A, name in Kabat numbering)
# heavy: B1 heavy with S55A, I56N
# chain: B1 chain
# light: B1 light
# notes: one-arm antibody
# B33: CE115HA000 S52cD (antibody, human IgG1, kappa, L234A L235A, N297A, name in Kabat numbering)
# heavy: B1 heavy with S55D, I56N
# chain: B1 chain
# light: B1 light
# notes: one-arm antibody
# Target: T1, CD3 epsilon homodimer protein (UniProt P07766 23-126)
# T1 construct: also called CD3 (CD3 epsilon)
# T1 sequence (P07766 23-126): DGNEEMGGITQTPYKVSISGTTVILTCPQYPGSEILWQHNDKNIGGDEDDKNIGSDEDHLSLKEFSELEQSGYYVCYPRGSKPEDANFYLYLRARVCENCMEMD
# Test: SPR, CD3 epsilon homodimer on chip, one-arm antibody as analyte;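 further: surface plasmon resonance at 25 °C with CD3 epsilon homodimer amine-coupled to a CM4 sensor chip, antibody injected as analyte, HBS-EP+ as running buffer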
row,Binder,KD ratio (KD of CE115HA000/KD of altered form)
1,B1,0.57
2,B2,0.79
3,B3,1.05
4,B4,0.59
5,B5,0.69
6,B6,0.94
7,B7,0.58
8,B8,0.59
9,B9,0.97
10,B10,0.84
11,B11,0.82
12,B12,0.91
13,B13,0.8
14,B14,0.57
15,B15,1.03
16,B16,0.84
17,B17,0.56

row,Binder,KD ratio (KD of CE115HA000/KD of altered form)
1,B18,22.6
2,B19,75.4
3,B20,16700
4,B21,1.21
5,B22,0.71
6,B23,1.41
7,B24,47.4
8,B25,49.1
9,B26,0.89
10,B27,0.74
11,B28,0.87
12,B29,0.81
13,B30,0.79
14,B31,0.93
15,B32,0.87
16,B33,0.55

# — US20210388087A1 (Chugai, published 2021)
